Target: T1, 人类CD70 (表达于细胞表面) (human, UniProt P32970 1-193)
T1 sequence: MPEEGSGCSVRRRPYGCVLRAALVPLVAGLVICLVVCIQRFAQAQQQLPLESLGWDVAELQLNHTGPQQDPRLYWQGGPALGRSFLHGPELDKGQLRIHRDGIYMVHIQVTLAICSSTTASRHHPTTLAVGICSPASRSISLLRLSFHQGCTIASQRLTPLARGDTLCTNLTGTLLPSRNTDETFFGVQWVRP
Experiment: cell-based or functional assay

B1: 抗-CD70人类单克隆抗体2H5 (antibody, V domains shown)
VH: QVQLVESGGGVVQPGRSLRLSCAASGFTFSSYIMHWVRQAPGKGLEWVAVISYDGRNKYYADSVKGRFTISRDNSKNTLYLQMNSLRAEDTAVYYCARDTDGYDFDYWGQGTLVTVSS
VL: EIVLTQSPATLSLSPGERATLSCRASQSVSSYLAWYQQKPGQAPRLLIYDASNRATGIPARFSGSGSGTDFTLTISSLEPEDFAVYYCQQRTNWPLTFGGGTKVEIK
3 H-胸腺嘧啶核苷掺入 (Hum-Zap内化测定, 786-O细胞), EC50: 0.9 nM

— patent CN101605906A (MEDAREX INC, dated 2009)
